We go through one molecule from US7067484 (Genentech, dated 2006).

In this experiment the target is CD4-IgG (human, UniProt P01730 26-205). Description: immunoaffinity chromatography of BT20 conditioned medium on CD4-IgG-Protein A precolumn, SDS-PAGE with silver staining. The protocol: BT20 cells were grown to 80% confluence in 150 mm plates, harvested by 5 mM EDTA in PBS, and seeded into […] roller bottles with growth medium. After 1 week of growth the cells were nearly confluent. The growth medium was removed, the cells washed with PBS, and serum-free growth medium was added. After 5 days, conditioned medium was harvested (12 liters from 72 roller bottles), centrifuged, sterile filtered, concentrated in a 12 kD molecular weight cutoff Amicon filter, and stored at −70° C.
200 ml of BT20 conditioned media, concentrated as described above from 12 liters and frozen, was thawed, centrifuged at 17,000 rpm in a Sorvall SS34 rotor, and filtered through a 0.45 µm filter to clarify the solution. The 200 ml was pumped through a 2.0 ml CD4-IgG—Protein A (CD4-IgG covalently linked to Protein A through IgG moiety) immunoaffinity precolumn and a 1.0 ml REK7-IgG—Protein A (REK7-IgG covalently linked to Protein A through IgG moiety) immunoaffinity column in tandem with a flow rate of 0.5 ml/min. All chromatography was carried out at 4° C. […] The eluates were brought to pH 7.4 by the addition of 50 mM potassium phosphate, and an aliquot of each was analyzed by sodium dodecycl sulfate (SDS)—polyacrylamide gel electrophoresis (PAGE). […]

B1: AL-1 (REK7 ligand) purified from BT20 cell conditioned medium (ligand)
chain: QDPGSKAVADRYAVYWNSSNPRFQRGDYHIDVCINDYLDVFCPHYEDSVPEDKTERYVLYMVNFDGYSACDHTSKGFKRWECNRPHSPNGPLKFSEKFQLFTPFSLGFEFRPGREYFYISSAIPDNGRRSCLKLKVFVRPTNSCMKTIGVHDRVFDVNDKVENSLEPADDTVHESAEPSRGEN
notes: Soluble forms in serum-free conditioned medium of human BT20 cells; The 27,000 and 25,000 Dalton proteins appeared to be proteolytically processed forms of the 28,000 Dalton protein; also called 28,000, 27,000 and 25,000 Dalton proteins; BT20 cell-derived AL-1
Take B1: the binding result was “no binding”.
